This test has as its target Pre-formed aBeta fibrils (UniProt P05067 672-713). In words: ELISA. In general terms: ELISA stands for enzyme-linked immunosorbent assay.

What is called EC50 is the midpoint of the concentration-response curve. A high value points to a need for much substance.

B1: gantenerumab (antibody, V domains shown)
VH: QVELVESGGGLVQPGGSLRLSCAASGFTFSSYAMSWVRQAPGKGLEWVSAINASGTRTYYADSVKGRFTISRDNSKNTLYLQMNSLRAEDTAVYYCARGKGNTHKPYGYVRYFDVWGQGTLVTVSS
VL: DIVLTQSPATLSLSPGERATLSCRASQSVSSSYLAWYQQKPGQAPRLLIYGASSRATGVPARFSGSGSGTDFTLTISSLEPEDFATYYCLQIYNMPITFGQGTKVEIK
The molecule B1 displayed an EC50 of 0.702 nM.

The values above are taken from patent US20260158147A1 (published 2026).
